We go through 17 molecules from patent publication US20260234246A1 (CAEDO ONCOLOGY, published 2026).

Numbering of substitutions follows the chain as printed.

The EC50 is the concentration that produces a half-maximal response. A lower EC50 goes with higher potency in that assay. The term EC50 (read off the curve) denotes the concentration at which the effect is half-maximal. A lower EC50 (read off the curve) goes with greater potency. As usually defined, the Kd is the concentration at which binding is half-saturated. The term koff denotes the first-order rate constant of dissociation. What is called kon is the second-order rate constant of association.

B1: AO-A IgG1 (AO-176 candidate A) (antibody, V domains shown)
VH: QVQLVQSGAEVKKPGASVKVSCKASGYTFTNYWIHWVRQAPGQGLEWMGYTDPRTDYTEYNQKFKDRVTMTRDTSTSTVYMELSSLRSEDTAVYYCARGGRVGLGYWGQGTLVTVSS
VL: DIVMTQSPDSLAVSLGERATINCRSSQNIVQSNGNTYLEWYQQKPGQPPKLLIYKVFHRFSGVPDRFSGSGSGTDFTLTISSLQAEDVAVYYCFQGSHVPYTFGQGTKLEIKR
notes: Comparator from WO2020/198370; also called AO-A.1; AO-176 A
B2: AO-B IgG1 (AO-176 candidate B) (antibody, V domains shown)
VH: EVQLVQSGAEVKKPGESLKISCKGSGYTFTNYWIHWVRQMPGKGLEWMGYTDPRTDYTEYNQKFKDQVTISADKSISTAYLQWSSLKASDTAMYYCARGGRVGLGYWGQGTLVTVSS
VL: B1 VL
notes: Comparator from WO2020/198370; also called AO-B.1; AO-176 B
B3: AO-C IgG1 (AO-176 candidate C) (antibody, V domains shown)
VH: B1 VH with A16S, N61A, K65Q, D66G, M70I, R72A, T74E, V79A
VL: B1 VL
notes: Comparator from WO2020/198370; also called AO-C.1; SC-AO-C
B4: CO205 humanized IgG4 anti-CD47 antibody (antibody, V domains shown)
VH: QVQLVQSGSELKKPGASVKVSCKASGYTFTNFGMHWVRQAPGQGLEWMGWINTYTGEPTYTDDFKGRFVFSLDTSVSTAYLQISSLKAEDTAVYYCARGDYRYGDSWGQGTTVTVSS
VL: DIVMTQTPLSLSVTPGQPASISCRSSQSLVHSNGKTYLHWYLQKPGQSPQLLIYRVSNRFSGVPDRFSGSGSGTDFTLKISRVEAEDVGVYYCSQSTHVPFTFGQGTKLEIK
notes: also called huCO-mAb
B5: CO201 humanized IgG4 anti-CD47 antibody (antibody, V domains shown)
VH: B4 VH
VL: B4 VL with S48P
notes: also called huCO-mAb
B6: CO-1.4 antibody (chimeric CO-1 IgG4) (antibody)
heavy: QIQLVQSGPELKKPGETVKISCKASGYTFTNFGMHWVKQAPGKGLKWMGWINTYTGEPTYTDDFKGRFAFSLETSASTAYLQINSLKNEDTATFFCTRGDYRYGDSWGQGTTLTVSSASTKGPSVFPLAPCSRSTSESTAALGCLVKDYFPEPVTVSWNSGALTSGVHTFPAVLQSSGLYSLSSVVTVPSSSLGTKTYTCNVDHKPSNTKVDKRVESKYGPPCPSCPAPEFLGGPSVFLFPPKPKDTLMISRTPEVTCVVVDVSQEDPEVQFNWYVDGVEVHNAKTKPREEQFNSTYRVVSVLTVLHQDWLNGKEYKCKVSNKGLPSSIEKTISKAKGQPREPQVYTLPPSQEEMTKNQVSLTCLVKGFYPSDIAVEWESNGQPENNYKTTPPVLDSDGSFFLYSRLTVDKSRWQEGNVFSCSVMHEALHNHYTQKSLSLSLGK
light: DVVMTQTPLSLPVSLGDQASISCRSSQSLVHSNGKTYLHWYLQKPGQSPKLLIYRVSNRFSGVPDRFSGSGSGTDFTLKISRIEAEDLGVYFCSQSTHVPFTFGSGTKLEIKRTVAAPSVFIFPPSDEQLKSGTASVVCLLNNFYPREAKVQWKVDNALQSGNSQESVTEQDSKDSTYSLSSTLTLSKADYEKHKVYACEVTHQGLSSPVTKSFNRGEC
notes: Chimeric: mouse variable domains of mCO-1 with human IgG4 constant regions; also called SC-CO-1.4
B7: CO207 humanized IgG4 anti-CD47 antibody (antibody, V domains shown)
VH: B4 VH with E46K, A97T
VL: B4 VL
notes: also called huCO-mAb
B8: CO208 humanized IgG4 anti-CD47 antibody (antibody, V domains shown)
VH: B4 VH with Q43K, E46K, A97T
VL: B4 VL
notes: also called huCO-mAb
B9: CO202 humanized IgG4 anti-CD47 antibody (antibody, V domains shown)
VH: B4 VH with A97T
VL: B4 VL with S48P
notes: also called huCO-mAb
B10: CO210 humanized IgG4 anti-CD47 antibody (antibody, V domains shown)
VH: B4 VH with A97T
VL: B4 VL with Q50K
notes: also called huCO-mAb
B11: CO213 humanized IgG4 anti-CD47 antibody (antibody, V domains shown)
VH: B4 VH with E46K
VL: B4 VL with S48P
notes: also called huCO-mAb
B12: CO212 humanized IgG4 anti-CD47 antibody (antibody, V domains shown)
VH: B4 VH with Q43K, E46K, A97T
VL: B4 VL with Q50K
notes: also called huCO-mAb
B13: CO204 humanized IgG4 anti-CD47 antibody (antibody, V domains shown)
VH: B4 VH with Q43K, E46K, A97T
VL: B4 VL with S48P
notes: also called huCO-mAb
B14: CO209 humanized IgG4 anti-CD47 antibody (antibody, V domains shown)
VH: B4 VH
VL: B4 VL with Q50K
notes: also called huCO-mAb
B15: CO211 humanized IgG4 anti-CD47 antibody (antibody, V domains shown)
VH: B4 VH with E46K, A97T
VL: B4 VL with Q50K
notes: also called huCO-mAb
B16: CO206 humanized IgG4 anti-CD47 antibody (antibody, V domains shown)
VH: B4 VH with A97T
VL: B4 VL
notes: also called huCO-mAb
B17: CO203 humanized IgG4 anti-CD47 antibody (antibody, V domains shown)
VH: B4 VH with E46K, A97T
VL: B4 VL with S48P
notes: also called huCO-mAb

The target in one assay is T1, human CD47 on the surface of cells (human cancer cell lines and human red blood cells) (human, UniProt Q08722 19-323).
T1 construct: Native CD47 of human cell lines (Jurkat, Reh, CCRF-CEM and others) and of RBCs from healthy donors; also called cell-surface CD47
T1 sequence (Q08722 19-323 limits assumed): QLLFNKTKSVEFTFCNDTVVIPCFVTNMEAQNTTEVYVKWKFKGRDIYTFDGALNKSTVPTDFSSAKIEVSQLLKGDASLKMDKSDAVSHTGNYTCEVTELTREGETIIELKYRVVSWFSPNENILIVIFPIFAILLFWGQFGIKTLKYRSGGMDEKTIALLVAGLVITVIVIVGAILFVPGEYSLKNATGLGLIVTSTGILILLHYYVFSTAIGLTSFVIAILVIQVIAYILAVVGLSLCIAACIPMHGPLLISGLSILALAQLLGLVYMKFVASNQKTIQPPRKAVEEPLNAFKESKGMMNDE
Description: flow cytometry, FITC-conjugated antibody on Reh cells. Background: A flow cytometer gives signals particle by particle.
Description: (§1) PBS-washed cancer cell lines or RBCs were pelleted and washed with washing buffer (3% (w/v) BSA, 1% (w/v) sodium azide in PBS) and incubated with Human BD Fc Block for 10 minutes before being plated into a round-bottom 96 well plate (2.5×10⁵ cells per well). Antibodies were conjugated with FITC using the FITC conjugation kit from Abcam. […] All samples were prepared in duplicates. Cells were washed three times and resuspended in cold washing buffer. Cells were kept on ice until analyses by flow cytometry. Excitation wavelength FITC: 488 nm, detection: 530/30 nm.
(§2) 4-parameter curve fitting was performed using GraphPad Prism
In the case of B1, the EC50 is 0.34 µg/mL.
In the case of B2, the EC50 turned out to be 3.1 µg/mL.
Molecule B3 registered an EC50 of 10.5 µg/mL.

The target in another assay is T1, human CD47 on the surface of cells …. Description: flow cytometry, FITC-conjugated antibody on human RBCs.
Description: as §1, §2
In the case of B1, a half-maximal effect (EC50) was put at 2.42 µg/mL.
On the same count and under the same terms, next, B2: 3.67 µg/mL; B3: 21.8 µg/mL.

For another assay the target is unchanged. Description: flow cytometry, FITC-conjugated antibody on Jurkat cells.
Description: as §1, §2
On to B1, for which a half-maximal response (EC50) required 0.0303 µg/mL.
Same read-out and setting: next, B2: 0.0748 µg/mL.
Still for that read-out and setting: next, B3: 0.0395 µg/mL.

For a further assay the target is unchanged. Description: flow cytometry, FITC-conjugated antibody on CCRF-CEM cells.
Description: as §1, §2
For B1, the EC50 worked out at 0.000285 µg/mL.
Turning to B2, the EC50 turned out to be 0.000559 µg/mL.
The same measure, in the same setting: to B3 belongs 0.00578 µg/mL.

The next assay shares this target. Description: flow cytometry on Jurkat cells, goat anti-human FITC, MFI against log µg/ml.
Description: PBS-washed cancer cell lines or RBCs were pelleted and washed with washing buffer (3% (w/v) BSA, 1% (w/v) sodium azide in DPBS) and incubated with Human BD Fc Block for 10 minutes before being plated into a round-bottom 96 well plate (2.5×10⁵ cells per well). […] All samples were prepared in duplicates. The cells were washed twice in washing buffer, followed by 30 minutes incubation with Goat anti-human FITC staining buffer (Goat anti-human FITC diluted 1:200 in washing buffer) on ice, protected from light with slight agitation. The cells were analyzed by flow cytometry after three washes in washing buffer. Excitation wavelength FITC: 488 nm, detection: 530/30 nm.
With B4, the “EC50 (read off the curve)” value was about 0.08 µg/mL.
Take B5: the “EC50 (read off the curve)” value is about 0.07 µg/mL.

In the next assay the target is T2, recombinant CD47 (recCD47), SinoBiological 12283-H27H-B, biotinylated (human, UniProt Q08722 19-139, biotinylated (AVI-tag)).
T2 construct: Bought protein, 17 kDa; At 17 kDa it can only be a part of it; also called recombinant biotinylated CD47; not shown: C-terminal His- and AVI-tag
T2 sequence (Q08722 19-139 limits assumed): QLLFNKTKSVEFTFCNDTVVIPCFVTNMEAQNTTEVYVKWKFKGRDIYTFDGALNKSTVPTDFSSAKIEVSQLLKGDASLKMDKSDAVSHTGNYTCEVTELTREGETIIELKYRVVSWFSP
Description: SPR Biacore S200, single-cycle, recCD47 on SA chip 700 RU, antibody as analyte, 25 C, 1:1 model. On the technique in general: SPR reads the build-up and loss of mass on a sensor chip optically.
For the molecule B6, the dissociation constant Kd was 0.003 nM, the koff worked out at 4.4e-06 s⁻¹ and the on-rate constant (kon) came to 1.5e+06 M⁻¹ s⁻¹.

The target in a further assay is T2, recombinant CD47 (recCD47), …. Description: SPR Biacore S200, single-cycle, recCD47 on SA chip 100 RU, antibody as analyte, 25 C, 1:1 model.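 Note: antibodies were injected over the captured CD47 at a series of concentrations, and KD was derived as the dissociation rate constant divided by the association rate constant.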
Description: The binding affinity of the huCO-mAbs to CD47 was determined via surface plasmon resonance (SPR) on a Biacore S200 system. Recombinant biotinylated CD47 was immobilized on an SA streptavidin chip to a level of 100 RU (in 10 mM NaAc pH5.0). The huCO-mAbs reacted with recombinant CD47 at gradient concentrations.
A 1:1 binding model was used to fit the data. […] The affinity constant KD is calculated as kd/kₐ.
Regarding B7, the Kd worked out at 0.0153 nM, the koff worked out at 7.3e-05 s⁻¹ and the kon worked out at 4.8e+06 M⁻¹ s⁻¹.
The like results for B8 were, in that order, 0.016 nM, 8.1e-05 s⁻¹ and 5e+06 M⁻¹ s⁻¹.
Take B9: the Kd was determined as 0.023 nM, the koff is 0.00012 s⁻¹ and the kon was 5.3e+06 M⁻¹ s⁻¹.
The like results for B4 were, in that order, 0.056 nM, 0.00046 s⁻¹ and 8.2e+06 M⁻¹ s⁻¹.
The like results for B10 were, in that order, 0.017 nM, 8.3e-05 s⁻¹ and 4.9e+06 M⁻¹ s⁻¹.
In the case of B11, the Kd turned out to be 0.032 nM, the koff was 0.00034 s⁻¹ and the kon was found to be 1.1e+07 M⁻¹ s⁻¹.
The like results for B12 were, in that order, 0.0123 nM, 7.2e-05 s⁻¹ and 5.8e+06 M⁻¹ s⁻¹.
The like results for B5 were, in that order, 0.0499 nM, 0.00043 s⁻¹ and 8.7e+06 M⁻¹ s⁻¹.
B13: the Kd worked out at 0.0149 nM, the koff is 8.5e-05 s⁻¹ and the kon was 5.7e+06 M⁻¹ s⁻¹.
The like results for B14 were, in that order, 0.0386 nM, 0.00032 s⁻¹ and 8.2e+06 M⁻¹ s⁻¹.
For the molecule B15, the Kd was 0.0135 nM, the koff is 6.8e-05 s⁻¹ and the kon is 5.1e+06 M⁻¹ s⁻¹.
The like results for B16 were, in that order, 0.0205 nM, 0.0001 s⁻¹ and 5.1e+06 M⁻¹ s⁻¹.
Turning to B17, the Kd came to 0.0164 nM, the koff is 7.9e-05 s⁻¹ and the kon amounted to 4.8e+06 M⁻¹ s⁻¹.

For the next assay the target is unchanged. Description: SPR Biacore S200, multi-cycle (top 50 nM), recCD47 on SA chip 1330 RU, antibody as analyte, 1:1 model.
Take B2: the Kd worked out at 3 nM, the koff is 0.004 s⁻¹ and the kon was 1.5e+06 M⁻¹ s⁻¹.
The like results for B3 were, in that order, 6 nM, about 0.01 s⁻¹ and 2.3e+06 M⁻¹ s⁻¹.

The next assay has the same target. Description: SPR Biacore S200, single-cycle (top 1 uM), recCD47 on SA chip 1330 RU, antibody as analyte, 1:1 model.
Take B1: the Kd came to 1 nM, the koff turned out to be 0.0006 s⁻¹ and the kon amounted to 500000 M⁻¹ s⁻¹.

Another assay has the same target. The assay is described as follows: SPR Biacore S200, single-cycle (top 80 nM), recCD47 on SA chip 1330 RU, antibody as analyte, 1:1 model.
For B1, the Kd is 1 nM, the koff was 0.0008 s⁻¹ and the kon was found to be 800000 M⁻¹ s⁻¹.
The like results for B2 were, in that order, 2 nM, 0.001 s⁻¹ and 800000 M⁻¹ s⁻¹.
The like results for B3 were, in that order, 3 nM, 0.003 s⁻¹ and 1.2e+06 M⁻¹ s⁻¹.

For another assay the target is unchanged. Description: SPR Biacore S200, multi-cycle (top 50 nM), run 1, recCD47 on SA chip 1330 RU, antibody as analyte, 1:1 model.
Turning to B1, the Kd is 1 nM, the koff was 0.001 s⁻¹ and the kon came to 1.5e+06 M⁻¹ s⁻¹.

A further assay has the same target. The assay is described as follows: SPR Biacore S200, multi-cycle (top 50 nM), run 2, recCD47 on SA chip 1330 RU, antibody as analyte, 1:1 model.
B1: the Kd was 1 nM, the koff is 0.002 s⁻¹ and the kon was determined as 1.8e+06 M⁻¹ s⁻¹.
